The source of these data is paper PMC7772510.

The assay addresses complement fragment iC3b (UniProt P01024). Briefly: ELISA. (In an ELISA, binding on a coated surface is turned into a signal by an enzyme label.)

GST-αM I-domain (domain or fragment) displayed a percent of the anticipated saturation level at 8 µM of 50%.
